According to PMC2860547:

Molecular target: Snf1 protein tagged with 3 copies of the HA epitope (wild type) (S. cerevisiae) (UniProt P06782)
Assay: co-IP

UniProt P06782, sequence (P06782 whole entry): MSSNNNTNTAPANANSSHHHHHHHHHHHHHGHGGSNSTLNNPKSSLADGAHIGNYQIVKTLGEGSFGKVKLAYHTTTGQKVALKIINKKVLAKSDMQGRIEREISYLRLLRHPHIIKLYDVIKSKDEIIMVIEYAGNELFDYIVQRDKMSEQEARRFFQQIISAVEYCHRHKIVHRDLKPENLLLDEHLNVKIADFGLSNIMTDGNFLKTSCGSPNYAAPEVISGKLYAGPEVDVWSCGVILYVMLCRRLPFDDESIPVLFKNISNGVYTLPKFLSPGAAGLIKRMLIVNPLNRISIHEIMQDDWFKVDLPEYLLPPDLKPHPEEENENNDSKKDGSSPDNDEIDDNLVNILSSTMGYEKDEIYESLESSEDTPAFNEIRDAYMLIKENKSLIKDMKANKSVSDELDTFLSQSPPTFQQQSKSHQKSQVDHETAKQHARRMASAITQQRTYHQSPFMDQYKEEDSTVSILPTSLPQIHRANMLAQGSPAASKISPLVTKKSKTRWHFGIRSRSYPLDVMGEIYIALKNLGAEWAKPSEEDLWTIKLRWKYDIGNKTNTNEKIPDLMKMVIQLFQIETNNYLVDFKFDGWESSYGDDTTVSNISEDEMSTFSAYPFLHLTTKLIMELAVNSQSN

Reg1-IF (I466M, F468A) (from UniProt Q00816 1-1014) (natural protein)
fold reduction of associated Reg1 against wild type Reg1: 30 fold
